In this assay the target is rabbit muscle actin (rabbit) (UniProt P68135). The experiment in a line: ELISA. On the technique in general: ELISA stands for enzyme-linked immunosorbent assay.

In turn, “Calmodulin-like calcium binding protein EhCaBP3 of Entamoeba histolytica (recombinant, wild type) (natural protein)” returned a percent inhibition of binding by EGTA of 75%.

For the origin of these results see publication PMC3531509.
